Literature values in paper PMC8526019.

Assays:
[1] = molecular target: ATG3 (Homo sapiens) (UniProt Q9NT62)
[2] = molecular target: Atg7 (Saccharomyces cerevisiae) (UniProt P38862)
[3] = molecular target: ATG14 (Homo sapiens) (UniProt Q6ZNE5)
[4] = molecular target: E-cadherin (Homo sapiens) (UniProt P12830)

UniProt Q6ZNE5, sequence (Q6ZNE5 whole entry): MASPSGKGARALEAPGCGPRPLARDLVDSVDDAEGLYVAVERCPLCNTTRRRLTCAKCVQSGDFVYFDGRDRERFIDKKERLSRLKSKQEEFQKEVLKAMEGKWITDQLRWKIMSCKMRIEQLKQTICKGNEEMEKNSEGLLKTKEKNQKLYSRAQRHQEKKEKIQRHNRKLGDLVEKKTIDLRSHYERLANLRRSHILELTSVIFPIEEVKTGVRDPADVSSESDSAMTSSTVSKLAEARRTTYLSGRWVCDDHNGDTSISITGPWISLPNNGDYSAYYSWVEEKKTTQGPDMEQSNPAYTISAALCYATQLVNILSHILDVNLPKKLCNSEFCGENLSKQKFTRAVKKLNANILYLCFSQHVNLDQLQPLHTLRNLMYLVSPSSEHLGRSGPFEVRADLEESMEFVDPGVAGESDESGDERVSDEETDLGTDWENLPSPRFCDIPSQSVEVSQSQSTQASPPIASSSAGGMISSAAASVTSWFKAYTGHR
UniProt Q9NT62, sequence (Q9NT62 whole entry): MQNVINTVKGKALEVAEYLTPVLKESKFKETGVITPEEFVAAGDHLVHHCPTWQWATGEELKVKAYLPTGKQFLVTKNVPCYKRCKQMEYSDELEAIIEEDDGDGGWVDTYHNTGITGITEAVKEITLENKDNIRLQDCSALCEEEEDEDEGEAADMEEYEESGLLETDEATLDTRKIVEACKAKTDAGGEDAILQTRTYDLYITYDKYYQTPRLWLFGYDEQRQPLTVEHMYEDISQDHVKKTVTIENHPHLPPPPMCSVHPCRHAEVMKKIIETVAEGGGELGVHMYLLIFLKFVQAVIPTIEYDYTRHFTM

Q: With ATG12 (from UniProt O94817) as the substance, how does the Kd [1] read?
A: 0.05 µM

Q: For Atg7 (from UniProt P38862), which Kd [2] is on record?
A: 0.001 µM

Q: With BECN1 (from UniProt Q14457) as the substance, how does the Kd [3] read?
A: 3.2 µM

Q: With E-cadherin (from UniProt P12830) as the substance, how does the Kd [4] read?
A: 160 µM
